Experimental data from patent publication US20210355194A1 (TWIST BIOSCIENCE, published 2021).

B1: variant 6-19 (Fc fusion)
VHH: EVQLVESGGGLVQPGGSLRLSCAASGSILSIAVMGWFRQAPGKEREFVAAISPSAVTTYYADSVKGRFTISADNSKNTAYLQMNSLKPEDTAVYYCAIGYYDSSGYFDYWGQGTLVTVSS
B2: variant 6-6 (Fc fusion)
VHH: EVQLVESGGGLVQPGGSLRLSCAASGTTLDYYAMGWFRQAPGKERELVAAISWSGGSTAYADSVKGRFTISADNSKNTAYLQMNSLKPEDTAVYYCAREDYYDSSGYSWGQGTLVTVSS
B3: variant 6-34 (Fc fusion)
VHH: EVQLVESGGGLVQPGGSLRLSCAASGSAFRSNAMGWFRQAPGKEREFVAHISWSSKSTYYADSVKGRFTISADNSKNTAYLQMNSLKPEDTAVYYCATYCSSTSCFDYWGQGTLVTVSS
B4: variant 6-22 (Fc fusion)
VHH: EVQLVESGGGLVQPGGSLRLSCAASGRTFSEVVMGWFRQAPGKEREFVATIHSSGSTSYADSVKGRFTISADNSKNTAYLQMNSLKPEDTAVYYCVRVTSDYSMDSWGQGTLVTVSS
B5: variant 6-33 (Fc fusion)
VHH: EVQLVESGGGLVQPGGSLRLSCAASGTFQRINHMGWFRQAPGKEREFVATINTGGQPNYADSVKGRFTISADNSKNTAYLQMNSLKPEDTAVYYCASLIAAQDYYFDYWGQGTLVTVSS
B6: variant 6-12 (Fc fusion)
VHH: EVQLVESGGGLVQPGGSLRLSCAASGSTYTTYSMGWFRQAPGKEREFVAAISGSENVTSYADSVKGRFTISADNSKNTAYLQMNSLKPEDTAVYYCARVDDYMDVWGQGTLVTVSS
B7: variant 6-38 (Fc fusion)
VHH: EVQLVESGGGLVQPGGSLRLSCAASGNTFSGGFMGWFRQAPGKEREFVAVISSLSSKSYADSVKGRFTISADNSKNTAYLQMNSLKPEDTAVYYCAKVDSGYDYWGQGTLVTVSS
B8: variant 6-13 (Fc fusion)
VHH: EVQLVESGGGLVQPGGSLRLSCAASGLTFNDYAMGWFRQAPGKEREFVAHIPRSTYSPYYADSVKGRFTISADNSKNTAYLQMNSLKPEDTAVYYCAFLVGPQGVDHGAFDVWGQGTLVTVSS
B9: variant 6-31 (Fc fusion)
VHH: EVQLVESGGGLVQPGGSLRLSCAASGDTFSANRMGWFRQAPGKEREFVASITWSSANTYYADSVKGRFTISADNSKNTAYLQMNSLKPEDTAVYYCATFNWNDEGFDFWGQGTLVTVSS
B10: variant 6-46 (Fc fusion)
VHH: EVQLVESGGGLVQPGGSLRLSCAASGLTFSAMGWFRQAPGKEREFVALIRRDGSTIYADSVKGRFTISADNSKNTAYLQMNSLKPEDTAVYYCAALGILFGYDAFDIWGQGTLVTVSS
B11: variant 6-17 (Fc fusion)
VHH: EVQLVESGGGLVQPGGSLRLSCAASGNTGSTGYMGWFRQAPGKEREMVAGVINDGSTVYADSVKGRFTISADNSKNTAYLQMNSLKPEDTAVYYCARLATSHQDGTGYLFDYWGQGTLVTVSS
B12: variant 6-15 (Fc fusion)
VHH: EVQLVESGGGLVQPGGSLRLSCAASGSTVLINAMGWFRQAPGKEREFVAAVRWSDDYTYYADSVKGRFTISADNSKNTAYLQMNSLKPEDTAVYYCAKEGRAGSLDYWGQGTLVTVSS
B13: variant 6-28 (Fc fusion)
VHH: EVQLVESGGGLVQPGGSLRLSCAASGDTYGSYWMGWFRQAPGKEREFVATITSDDRTNYADSVKGRFTISADNSKNTAYLQMNSLKPEDTAVYYCARVTSSLSGMDVWGQGTLVTVSS
B14: variant 6-20 (Fc fusion)
VHH: EVQLVESGGGLVQPGGSLRLSCAASGSTLPYHAMGWFRQAPGKEREFVAAITWNGASTSYADSVKGRFTISADNSKNTAYLQMNSLKPEDTAVYYCARDRYYDTSASYFESETWGQGTLVTVSS
notes: VHH-Fc
B15: variant 6-36 (Fc fusion)
VHH: EVQLVESGGGLVQPGGSLRLSCAASGFDFSVSWMGWFRQAPGKEREFVTAITWSGDSTNYADSVKGRFTISADNSKNTAYLQMNSLKPEDTAVYYCASLLHTGPSGGNYFDYWGQGTLVTVSS
B16: variant 6-40 (Fc fusion)
VHH: EVQLVESGGGLVQPGGSLRLSCAASGFTFSDYWMGWFRQAPGKERELVARVWWNGGSAYYADSVKGRFTISADNSKNTAYLQMNSLKPEDTAVYYCAREVLRQQVVLDYWGQGTLVTVSS
B17: variant 6-45 (Fc fusion)
VHH: EVQLVESGGGLVQPGGSLRLSCAASGNMFSINAMGWFRQAPGKEREFVTLISWSSGRTSYADSVKGRFTISADNSKNTAYLQMNSLKPEDTAVYYCASLGYCSGGSCFDYWGQGTLVTVSS
B18: variant 6-43 (Fc fusion)
VHH: EVQLVESGGGLVQPGGSLRLSCAASGRTFSSYAMMGWFRQAPGKEREFVASVNWDASQINYADSVKGRFTISADNSKNTAYLQMNSLKPEDTAVYYCTTLGAVYFDSSGYHDYFDYWGQGTLVTVSS
B19: variant 6-39 (Fc fusion)
VHH: EVQLVESGGGLVQPGGSLRLSCAASGFTFSPSWMGWFRQAPGKEREFVAAISWSGGSTAYADSVKGRFTISADNSKNTAYLQMNSLKPEDTAVYYCHGLGEGDPYGDYEGYFDLWGQGTLVTVSS
B20: variant 6-41 (Fc fusion)
VHH: EVQLVESGGGLVQPGGSLRLSCAASGFTFSTSWMGWFRQAPGKEREFVASINEYGGRNYADSVKGRFTISADNSKNTAYLQMNSLKPEDTAVYYCAGLHYYYDSSGYNPTEYYGMDVWGQGTLVTVSS
B21: variant 6-24 (Fc fusion)
VHH: EVQLVESGGGLVQPGGSLRLSCAASGFTLDYYAMGWFRQAPGKEREFVAAINWSGDNTHYADSVKGRFTISADNSKNTAYLQMNSLKPEDTAVYYCARAPFYCTTTKCQDNYYYMDVWGQGTLVTVSS
B22: variant 6-44 (Fc fusion)
VHH: EVQLVESGGGLVQPGGSLRLSCAASGGTFGVYHMGWFRQAPGKEREFIGRITWTDGSTYYADSVKGRFTISADNSKNTAYLQMNSLKPEDTAVYYCFGLLEVYDMTFDYWGQGTLVTVSS
B23: variant 6-10 (Fc fusion)
VHH: EVQLVESGGGLVQPGGSLRLSCAASGSIASIHAMGWFRQAPGKEREFVAAISRSGGFGSYADSVKGRFTISADNSKNTAYLQMNSLKPEDTAVYYCARDDKYYDSSGYPAYFQHWGQGTLVTVSS
B24: variant 6-18 (Fc fusion)
VHH: EVQLVESGGGLVQPGGSLRLSCAASGLTFRNYAMGWFRQAPGKEREFIAGMMWSGGTTTYADSVKGRFTISADNSKNTAYLQMNSLKPEDTAVYYCAREGYYYDSSGYLNYFDYWGQGTLVTVSS
B25: variant 6-42 (Fc fusion)
VHH: EVQLVESGGGLVQPGGSLRLSCAASGDTYGSYWMGWFRQAPGKEREFVAVITSGGSTNYADSVKGRFTISADNSKNTAYLQMNSLKPEDTAVYYCTHVQNSYYYAMDVWGQGTLVTVSS
B26: variant 6-23 (Fc fusion)
VHH: EVQLVESGGGLVQPGGSLRLSCAASGSIFSMNTMGWFRQAPGKEREFVALINRSGGGINYADSVKGRFTISADNSKNTAYLQMNSLKPEDTAVYYCVRLSSGYYDFDYWGQGTLVTVSS
B27: variant 6-25 (Fc fusion)
VHH: EVQLVESGGGLVQPGGSLRLSCAASGLTFGTYTMGWFRQAPGKEREFVAAISRFGSTYYADSVKGRFTISADNSKNTAYLQMNSLKPEDTAVYYCARGGDYDFWSVDYMDVWGQGTLVTVSS
B28: variant 6-32 (Fc fusion)
VHH: EVQLVESGGGLVQPGGSLRLSCAASGFTLDYYDMGWFRQAPGKEREFVALISWSGGSTYYADSVKGRFTISADNSKNTAYLQMNSLKPEDTAVYYCATDFYGWGTRERDAFDIWGQGTLVTVSS
B29: variant 6-37 (Fc fusion)
VHH: EVQLVESGGGLVQPGGSLRLSCAASGHTFSTSWMGWFRQAPGKEREFVATINSLGGTNYADSVKGRFTISADNSKNTAYLQMNSLKPEDTAVYYCARVSSGDYGMDVWGQGTLVTVSS
B30: variant 6-16 (Fc fusion)
VHH: EVQLVESGGGLVQPGGSLRLSCAASGFTFDDAAMGWFRQAPGKEREFVAHISWSGGSTYYADSVKGRFTISADNSKNTAYLQMNSLKPEDTAVYYCATFGATVTATNDAFDIWGQGTLVTVSS
B31: variant 6-14 (Fc fusion)
VHH: EVQLVESGGGLVQPGGSLRLSCAASGITFRFKAMGWFRQAPGKEREFVAAVSWDGRNTYYADSVKGRFTISADNSKNTAYLQMNSLKPEDTAVYYCASDYYYMDVWGQGTLVTVSS
B32: variant 6-26 (Fc fusion)
VHH: EVQLVESGGGLVQPGGSLRLSCAASGDTFSTSWMGWFRQAPGKEREFVATINTGGGTNYADSVKGRFTISADNSKNTAYLQMNSLKPEDTAVYYCARVTTSFDYWGQGTLVTVSS
notes: VHH-Fc
B33: variant 6-77 (Fc fusion)
VHH: EVQLVESGGGLVQPGGSLRLSCAASGFTFDRSWMGWFRQAPGKEREFVAAVTEGGTTSYADSVKGRFTISADNSKNTAYLQMNSLKPEDTAVYYCARADYDFDYWGQGTLVTVSS
B34: variant 6-30 (Fc fusion)
VHH: EVQLVESGGGLVQPGGSLRLSCAASGFAFGDSWMGWFRQAPGKEREFVATINWSGVTAYADSVKGRFTISADNSKNTAYLQMNSLKPEDTAVYYCARADGYFDYWGQGTLVTVSS

target: CV S-protein construct 6 trimer TP31001F (SARS-CoV-2, UniProt P0DTC2 14-1208); assay: SPR

Question: Which Kd does the source give for B1 here?
Answer: 1 nM

Question: With B2 as the binder, how does the Kd read?
Answer: 67.7 nM

Question: How did the Kd turn out when B3 was run?
Answer: 0.7 nM

Question: How did the Kd turn out when B4 was run?
Answer: 1.8 nM

Question: How did the Kd turn out when B5 was run?
Answer: 0.2 nM

Question: For B6, which Kd is on record?
Answer: 1.4 nM

Question: With B7 as the binder, how does the Kd read?
Answer: 0.5 nM

Question: For B8, which Kd is on record?
Answer: 0.6 nM

Question: B9 was tested. Which Kd did it give?
Answer: 20.7 nM

Question: B10 was tested. Which Kd did it give?
Answer: 1.9 nM

Question: B11 was tested. Which Kd did it give?
Answer: 0.6 nM

Question: With B12 as the binder, how does the Kd read?
Answer: 9050 nM

Question: With B13 as the binder, how does the Kd read?
Answer: 0.4 nM

Question: Which Kd does the source give for B14 here?
Answer: 0.3 nM

Question: For B15, which Kd is on record?
Answer: 0.8 nM

Question: With B16 as the binder, how does the Kd read?
Answer: 1.9 nM

Question: Which Kd does the source give for B17 here?
Answer: 1.3 nM

Question: How did the Kd turn out when B18 was run?
Answer: 0.7 nM

Question: Which Kd does the source give for B19 here?
Answer: 0.1 nM

Question: B20 was tested. Which Kd did it give?
Answer: 1 nM

Question: With B21 as the binder, how does the Kd read?
Answer: 0.2 nM

Question: With B22 as the binder, how does the Kd read?
Answer: 0.9 nM

Question: How did the Kd turn out when B23 was run?
Answer: 0.6 nM

Question: B24 was tested. Which Kd did it give?
Answer: 5.3 nM

Question: With B25 as the binder, how does the Kd read?
Answer: 7.8 nM

Question: For B26, which Kd is on record?
Answer: 0.3 nM

Question: B27 was tested. Which Kd did it give?
Answer: 5.8 nM

Question: B28 was tested. Which Kd did it give?
Answer: 0.1 nM

Question: B29 was tested. Which Kd did it give?
Answer: 0.7 nM

Question: Which Kd does the source give for B30 here?
Answer: 2.2 nM

Question: For B31, which Kd is on record?
Answer: 466 nM

Question: How did the Kd turn out when B32 was run?
Answer: 0.1 nM

Question: For B33, which Kd is on record?
Answer: 3.5 nM

Question: B34 was tested. Which Kd did it give?
Answer: 0.1 nM
